The source of these data is paper PMC11969024 (2025).

B1: peptide HD2 (from tick evasin EVA4) / CCL11 (biotinylated, synthetic) (parent complex)
chain 1: EEDDYTAYAPLTCYFT
chain 2: not shown

Variants of B1 are the subject of the experiment.
chain 1 E2M: the enrichment was -1.91 log2 (difference from the parental peptide). The figure for chain 1 E2N is -2.1 log2 (difference from the parental peptide); for chain 1 E2S it is -1.71 log2 (difference from the parental peptide); for chain 1 C13F it is -7.62 log2 (difference from the parental peptide).

As to chain 1 C13W, the enrichment is -7.9 log2 (difference from the parental peptide). As to chain 1 D3T, the enrichment was -2 log2 (difference from the parental peptide).

For the variant chain 1 D3F, the enrichment was -1.93 log2 (difference from the parental peptide). In the case of chain 1 D3K, the enrichment is -4.93 log2 (difference from the parental peptide). For the variant chain 1 Y8I, the enrichment was -9.96 log2 (difference from the parental peptide). For chain 1 T6P, the enrichment was -4.98 log2 (difference from the parental peptide).

As to chain 1 P10W, the enrichment was -7.42 log2 (difference from the parental peptide).

As to chain 1 E1Y, the enrichment was -1.08 log2 (difference from the parental peptide). Under chain 1 E1N stands -0.236 log2 (difference from the parental peptide); under chain 1 E1I, -0.709 log2 (difference from the parental peptide).

As to chain 1 E1D, the enrichment was 2.04 log2 (difference from the parental peptide). Turning to chain 1 E1W, the enrichment is -3.15 log2 (difference from the parental peptide). chain 1 L11E: the enrichment is -2.74 log2 (difference from the parental peptide). Under chain 1 L11F stands -0.71 log2 (difference from the parental peptide); under chain 1 A7K, 1.27 log2 (difference from the parental peptide); under chain 1 A7D, 2.81 log2 (difference from the parental peptide). The figure for chain 1 A7L is 0.532 log2 (difference from the parental peptide); for chain 1 Y14A it is -6.29 log2 (difference from the parental peptide); for chain 1 Y14N it is -4.02 log2 (difference from the parental peptide). Under chain 1 Y14W stands -0.519 log2 (difference from the parental peptide); under chain 1 Y14G, -8.75 log2 (difference from the parental peptide); under chain 1 Y14H, -2.21 log2 (difference from the parental peptide).

As to chain 1 Y14K, the enrichment was -7.74 log2 (difference from the parental peptide). For the variant chain 1 Y14C, the enrichment was -5.72 log2 (difference from the parental peptide).

As for chain 1 Y14S, the enrichment was -5.39 log2 (difference from the parental peptide).

In the case of chain 1 Y5I, the enrichment was -4.75 log2 (difference from the parental peptide).

As to chain 1 Y5E, the enrichment is 0.188 log2 (difference from the parental peptide).

For the variant chain 1 Y5C, the enrichment was -5.28 log2 (difference from the parental peptide). Turning to chain 1 T12S, the enrichment was -1.64 log2 (difference from the parental peptide). The figure for chain 1 T12R is -3.61 log2 (difference from the parental peptide); for chain 1 T12N it is -0.967 log2 (difference from the parental peptide); for chain 1 T12W it is -2.96 log2 (difference from the parental peptide).

For the variant chain 1 T12C, the enrichment was -6.12 log2 (difference from the parental peptide). With chain 1 T12E, the enrichment was -1.39 log2 (difference from the parental peptide). The figure for chain 1 T12D is -2.24 log2 (difference from the parental peptide); for chain 1 F15D it is -0.00314 log2 (difference from the parental peptide); for chain 1 F15R it is -3.27 log2 (difference from the parental peptide). Consider chain 1 F15Q, for which the enrichment was -0.31 log2 (difference from the parental peptide). Under chain 1 F15M stands 0.54 log2 (difference from the parental peptide); under chain 1 F15A, 0.737 log2 (difference from the parental peptide); under chain 1 F15L, 0.0745 log2 (difference from the parental peptide). Under chain 1 A9N stands -5.15 log2 (difference from the parental peptide). Under chain 1 A9F stands -8.22 log2 (difference from the parental peptide); under chain 1 A9H, -4.7 log2 (difference from the parental peptide); under chain 1 A9I, -10.6 log2 (difference from the parental peptide). chain 1 A9T: the enrichment was -3.11 log2 (difference from the parental peptide). Under chain 1 A9W stands -5.62 log2 (difference from the parental peptide); under chain 1 T16E, 2.21 log2 (difference from the parental peptide). As for chain 1 T16I, the enrichment was 0.443 log2 (difference from the parental peptide).

Consider chain 1 T16G, for which the enrichment was 1.39 log2 (difference from the parental peptide).
